# Test results: patent US8778880
# Legend:
# [1] = target: T1, rat GHR (L43R) on BAF3 cells (clone 2E2-2B12-F4) (rat) (UniProt P16310); test: cell-based or functional assay
# T1 sequence (looked up): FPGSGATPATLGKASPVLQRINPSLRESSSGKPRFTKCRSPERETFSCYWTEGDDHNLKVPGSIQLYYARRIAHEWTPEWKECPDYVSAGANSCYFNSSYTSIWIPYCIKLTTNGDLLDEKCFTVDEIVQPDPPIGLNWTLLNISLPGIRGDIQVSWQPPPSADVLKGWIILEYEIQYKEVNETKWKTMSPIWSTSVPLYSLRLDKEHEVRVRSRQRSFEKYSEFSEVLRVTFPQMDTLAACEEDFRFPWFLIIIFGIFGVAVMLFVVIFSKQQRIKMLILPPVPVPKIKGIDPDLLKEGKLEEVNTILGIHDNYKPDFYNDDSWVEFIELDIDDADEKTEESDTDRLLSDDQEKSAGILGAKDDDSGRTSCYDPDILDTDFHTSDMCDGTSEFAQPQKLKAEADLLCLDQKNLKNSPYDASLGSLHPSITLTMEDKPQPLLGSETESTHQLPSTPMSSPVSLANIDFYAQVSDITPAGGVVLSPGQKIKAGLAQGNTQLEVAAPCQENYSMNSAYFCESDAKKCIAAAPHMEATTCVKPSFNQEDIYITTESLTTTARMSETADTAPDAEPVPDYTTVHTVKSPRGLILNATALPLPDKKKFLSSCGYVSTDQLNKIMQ
# [2] = target: human growth hormone receptor on IM-9 cells (human) (UniProt P10912); test: cell-based or functional assay
# Sequence of UniProt P10912 (P10912 19-638): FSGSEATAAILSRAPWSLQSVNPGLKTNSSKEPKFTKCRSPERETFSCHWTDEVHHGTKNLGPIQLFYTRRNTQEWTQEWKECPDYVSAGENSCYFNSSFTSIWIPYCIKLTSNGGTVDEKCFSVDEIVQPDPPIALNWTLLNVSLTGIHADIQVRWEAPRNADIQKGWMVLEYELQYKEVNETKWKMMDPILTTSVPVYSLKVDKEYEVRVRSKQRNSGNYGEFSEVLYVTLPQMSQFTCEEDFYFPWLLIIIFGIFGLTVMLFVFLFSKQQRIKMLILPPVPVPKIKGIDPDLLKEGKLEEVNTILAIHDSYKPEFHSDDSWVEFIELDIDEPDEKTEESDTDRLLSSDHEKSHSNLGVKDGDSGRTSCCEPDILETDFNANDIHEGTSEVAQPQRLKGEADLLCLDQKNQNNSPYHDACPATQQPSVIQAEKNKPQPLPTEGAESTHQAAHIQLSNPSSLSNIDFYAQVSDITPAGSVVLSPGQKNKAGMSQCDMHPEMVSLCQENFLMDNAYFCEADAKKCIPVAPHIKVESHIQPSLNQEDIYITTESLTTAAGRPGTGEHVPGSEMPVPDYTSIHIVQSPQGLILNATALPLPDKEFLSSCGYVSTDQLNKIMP
Substance,"Proliferation EC50 (BrdU, rat GHR (L43R) BAF3 cells) (nM (head); WHO hGH expressed as unity) [1]",pSTAT5 EC50 (IM-9) (nM (head); WHO hGH expressed as unity) [2]
hGH Y35pAF-40KPEG (from UniProt P01241 27-217) (ligand),24,53.3
hGH Y143pAF-30KPEG (from UniProt P01241 27-217) (ligand),6.6,12.3
hGH K145pAF-30KPEG (from UniProt P01241 27-217) (ligand),5.3,20.6

# Other lines, results leading:
"Proliferation EC50 (BrdU, rat GHR (L43R) BAF3 cells) (nM (head); WHO hGH expressed as unity) [1]",pSTAT5 EC50 (IM-9) (nM (head); WHO hGH expressed as unity) [2],Substance
–,5.3,hGH R134pAF-20KPEG (from UniProt P01241 27-217) (ligand)
4.6,23.8,hGH G131pAF-30KPEG (from UniProt P01241 27-217) (ligand)
